Source: article doi:10.1101/2024.09.12.612744 (bioRxiv, 2024)

Experiments:
[1] = biological target: the molecule itself; test: SEC
[2] = biological target: the molecule itself; test: cryo-EM structure

| Protein | binding result [1] | stoichiometry N [2] |
| --- | --- | --- |
| PKD2 WT channel (hPKD2: 52-793) (domain or fragment, human, UniProt Q13563 52-793, looked up) LEIEMQRIRQAAARDPPAGAAASPSPPLSSCSRQAWSRDNPGFEAEEEEEEVEGEEGGMVVEMDVEWRPGSRRSAASSAVSSVGARSRGLGGYHGAGHPSGRRRRREDQGPPCPSPVGGGDPLHRHLPLEGQPPRVAWAERLVRGLRGLWGTRLMEESSTNREKYLKSVLRELVTYLLFLIVLCILTYGMMSSNVYYYTRMMSQLFLDTPVSKTEKTNFKTLSSMEDFWKFTEGSLLDGLYWKMQPSNQTEADNRSFIFYENLLLGVPRIRQLRVRNGSCSIPQDLRDEIKECYDVYSVSSEDRAPFGPRNGTAWIYTSEKDLNGSSHWGIIATYSGAGYYLDLSRTREETAAQVASLKKNVWLDRGTRATFIDFSVYNANINLFCVVRLLVEFPATGGVIPSWQFQPLKLIRYVTTFDFFLAACEIIFCFFIFYYVVEEILEIRIHKLHYFRSFWNCLDVVIVVLSVVAIGINIYRTSNVEVLLQFLEDQNTFPNFEHLAYWQIQFNNIAAVTVFFVWIKLFKFINFNRTMSQLSTTMSRCAKDLFGFAIMFFIIFLAYAQLAYLVFGTQVDDFSTFQECIFTQFRIILGDINFAEIEEANRVLGPIYFTTFVFFMFFILLNMFLAIINDTYSEVKSDLAQQKAEMELSDLIRKGYHKALVKLKLKKNTVDDISESLRQGGGKLNFDELRQDLKGKGHTDAEIEAIFTKYDQDGDQELTEHEHQQMRDDLEKEREDLDLDH | binds |  |
| PKD2 R638C variant channel (hPKD2: 52-793) (domain or fragment, human, UniProt Q13563 52-793, looked up) LEIEMQRIRQAAARDPPAGAAASPSPPLSSCSRQAWSRDNPGFEAEEEEEEVEGEEGGMVVEMDVEWRPGSRRSAASSAVSSVGARSRGLGGYHGAGHPSGRRRRREDQGPPCPSPVGGGDPLHRHLPLEGQPPRVAWAERLVRGLRGLWGTRLMEESSTNREKYLKSVLRELVTYLLFLIVLCILTYGMMSSNVYYYTRMMSQLFLDTPVSKTEKTNFKTLSSMEDFWKFTEGSLLDGLYWKMQPSNQTEADNRSFIFYENLLLGVPRIRQLRVRNGSCSIPQDLRDEIKECYDVYSVSSEDRAPFGPRNGTAWIYTSEKDLNGSSHWGIIATYSGAGYYLDLSRTREETAAQVASLKKNVWLDRGTRATFIDFSVYNANINLFCVVRLLVEFPATGGVIPSWQFQPLKLIRYVTTFDFFLAACEIIFCFFIFYYVVEEILEIRIHKLHYFRSFWNCLDVVIVVLSVVAIGINIYRTSNVEVLLQFLEDQNTFPNFEHLAYWQIQFNNIAAVTVFFVWIKLFKFINFNRTMSQLSTTMSRCAKDLFGFAIMFFIIFLAYAQLAYLVFGTQVDDFSTFQECIFTQFCIILGDINFAEIEEANRVLGPIYFTTFVFFMFFILLNMFLAIINDTYSEVKSDLAQQKAEMELSDLIRKGYHKALVKLKLKKNTVDDISESLRQGGGKLNFDELRQDLKGKGHTDAEIEAIFTKYDQDGDQELTEHEHQQMRDDLEKEREDLDLDH |  | 4 |
| PKD2 F629S variant channel (hPKD2: 52-793) (domain or fragment, human, UniProt Q13563 52-793, looked up) LEIEMQRIRQAAARDPPAGAAASPSPPLSSCSRQAWSRDNPGFEAEEEEEEVEGEEGGMVVEMDVEWRPGSRRSAASSAVSSVGARSRGLGGYHGAGHPSGRRRRREDQGPPCPSPVGGGDPLHRHLPLEGQPPRVAWAERLVRGLRGLWGTRLMEESSTNREKYLKSVLRELVTYLLFLIVLCILTYGMMSSNVYYYTRMMSQLFLDTPVSKTEKTNFKTLSSMEDFWKFTEGSLLDGLYWKMQPSNQTEADNRSFIFYENLLLGVPRIRQLRVRNGSCSIPQDLRDEIKECYDVYSVSSEDRAPFGPRNGTAWIYTSEKDLNGSSHWGIIATYSGAGYYLDLSRTREETAAQVASLKKNVWLDRGTRATFIDFSVYNANINLFCVVRLLVEFPATGGVIPSWQFQPLKLIRYVTTFDFFLAACEIIFCFFIFYYVVEEILEIRIHKLHYFRSFWNCLDVVIVVLSVVAIGINIYRTSNVEVLLQFLEDQNTFPNFEHLAYWQIQFNNIAAVTVFFVWIKLFKFINFNRTMSQLSTTMSRCAKDLFGFAIMFFIIFLAYAQLAYLVFGTQVDDFSTSQECIFTQFRIILGDINFAEIEEANRVLGPIYFTTFVFFMFFILLNMFLAIINDTYSEVKSDLAQQKAEMELSDLIRKGYHKALVKLKLKKNTVDDISESLRQGGGKLNFDELRQDLKGKGHTDAEIEAIFTKYDQDGDQELTEHEHQQMRDDLEKEREDLDLDH |  | 4 |
